This is an account of results in patent US20200166530A1 (CASE WESTERN RESERVE UNIVERSITY, published 2020).

Ends that are not written are not given here.

The target of this test is T1, hERα^CDE, multidomain segment of human estrogen receptor alpha containing both DBD and LBD (residues … (human, UniProt P03372 181-552)).
T1 construct: Expressed in E. coli from the pMCSG7 vector; It functions as a homodimer; In the SPR assay it was injected as the complex with ERE-DNA and estradiol; also called hERα^CDE-DNA-E2 complex
T1 sequence: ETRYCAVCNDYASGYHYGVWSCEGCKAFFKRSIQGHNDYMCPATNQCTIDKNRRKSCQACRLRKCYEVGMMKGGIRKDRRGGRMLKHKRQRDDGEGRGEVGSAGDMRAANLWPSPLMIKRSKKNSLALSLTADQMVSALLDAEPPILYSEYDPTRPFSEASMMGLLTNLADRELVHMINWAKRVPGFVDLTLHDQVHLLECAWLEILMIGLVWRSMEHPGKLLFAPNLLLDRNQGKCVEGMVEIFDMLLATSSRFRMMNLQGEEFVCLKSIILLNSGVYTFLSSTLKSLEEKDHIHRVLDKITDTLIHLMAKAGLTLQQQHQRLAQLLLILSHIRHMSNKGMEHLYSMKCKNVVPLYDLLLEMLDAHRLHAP
Put plainly: SPR (Biacore T100): biotinylated TIF2 peptide immobilised on an SA chip, hERα^CDE-DNA-E2 complex injected at 0-5 µM, 25° C [panel e]. As to the method: Measurements were conducted at 25° C. using a Biacore T100 system.

B1: coactivator TIF2 peptide (KENALLRYLLDKDD) (peptide)
peptide: KENALLRYLLDKDD
modifications: also: biotinylated (position not given here)
notes: For SPR the peptide was biotinylated and captured on an SA sensor chip at 10 RUs; also called biotinylated TIF2 peptide
Turning to B1, the binding result was “binds”.
